Results: article PMC11703099

Molecular target: SET-26::GFP, excessively sumoylated (from F2 ulp-2(tv380) or ulp-2(RNAi) animals) (C. elegans) (UniProt Q9U263)
Assay: co-IP; anti-GFP immunoprecipitation of SET-26::GFP from whole-worm lysates (1% PFA, sonicated), blot with anti-H3K4me3; WT and F2 ulp-2(tv380) backgrounds; 3 biological replicates

UniProt Q9U263, sequence (Q9U263 whole entry): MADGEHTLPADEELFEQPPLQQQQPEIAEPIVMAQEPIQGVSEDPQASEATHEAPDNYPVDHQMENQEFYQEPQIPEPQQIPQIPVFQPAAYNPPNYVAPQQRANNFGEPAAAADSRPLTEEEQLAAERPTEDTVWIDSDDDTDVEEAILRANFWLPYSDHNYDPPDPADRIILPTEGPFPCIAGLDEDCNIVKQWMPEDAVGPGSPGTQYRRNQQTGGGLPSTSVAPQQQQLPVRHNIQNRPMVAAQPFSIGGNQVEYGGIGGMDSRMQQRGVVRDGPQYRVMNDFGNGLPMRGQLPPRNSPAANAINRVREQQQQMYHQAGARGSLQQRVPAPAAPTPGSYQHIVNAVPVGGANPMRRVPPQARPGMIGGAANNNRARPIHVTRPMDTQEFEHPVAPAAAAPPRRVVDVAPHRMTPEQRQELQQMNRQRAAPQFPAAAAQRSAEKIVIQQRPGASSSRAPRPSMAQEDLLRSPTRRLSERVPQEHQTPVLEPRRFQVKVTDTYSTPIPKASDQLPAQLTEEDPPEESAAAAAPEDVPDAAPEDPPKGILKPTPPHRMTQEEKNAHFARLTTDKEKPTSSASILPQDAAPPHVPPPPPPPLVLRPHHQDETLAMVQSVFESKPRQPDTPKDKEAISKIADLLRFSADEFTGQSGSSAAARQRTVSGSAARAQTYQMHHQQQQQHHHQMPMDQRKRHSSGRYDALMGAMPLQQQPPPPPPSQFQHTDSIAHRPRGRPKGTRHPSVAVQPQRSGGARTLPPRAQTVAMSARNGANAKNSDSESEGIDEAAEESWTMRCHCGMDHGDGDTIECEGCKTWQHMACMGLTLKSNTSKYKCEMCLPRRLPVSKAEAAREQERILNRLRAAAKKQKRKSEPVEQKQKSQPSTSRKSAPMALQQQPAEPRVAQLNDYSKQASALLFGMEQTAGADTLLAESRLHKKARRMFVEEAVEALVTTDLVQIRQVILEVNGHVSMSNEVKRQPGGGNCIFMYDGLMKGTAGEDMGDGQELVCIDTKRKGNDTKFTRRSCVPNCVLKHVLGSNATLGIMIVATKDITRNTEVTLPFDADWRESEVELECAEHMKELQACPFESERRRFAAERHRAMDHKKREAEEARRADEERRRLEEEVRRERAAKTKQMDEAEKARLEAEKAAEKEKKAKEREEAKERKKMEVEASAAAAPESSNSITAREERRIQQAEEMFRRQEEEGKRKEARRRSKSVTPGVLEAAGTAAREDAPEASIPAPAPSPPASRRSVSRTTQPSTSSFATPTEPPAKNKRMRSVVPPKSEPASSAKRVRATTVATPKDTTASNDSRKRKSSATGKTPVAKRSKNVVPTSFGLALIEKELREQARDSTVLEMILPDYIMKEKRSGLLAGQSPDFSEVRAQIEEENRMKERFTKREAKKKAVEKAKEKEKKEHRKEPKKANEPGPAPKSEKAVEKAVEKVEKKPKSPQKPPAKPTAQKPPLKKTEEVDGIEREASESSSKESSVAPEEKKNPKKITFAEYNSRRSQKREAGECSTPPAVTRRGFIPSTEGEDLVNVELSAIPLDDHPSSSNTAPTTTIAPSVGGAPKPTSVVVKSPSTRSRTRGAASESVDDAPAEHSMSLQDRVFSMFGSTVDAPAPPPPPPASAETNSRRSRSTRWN

Substance: Histone H3 tri-methylated at lysine 4 (H3K4me3) (from UniProt P08898 1-136) (natural protein)
- reduction of binding compared with WT: 55%
